The source of these data is the supplement of paper PMC7125110.

First the molecules themselves.
B1: glmS ribozyme (parent)
chain: AUAAAAGCGCCAGAACUACAGAAAUGUAGUUGACGAGGAGGAGGUUUAUCGAAUUUUCGGCGGAUGCCUCCAAA

What all share (conditions): with glucosamine-6-phosphate
In data set [1] the parent is B1. Kind of data set: kcat; higher = faster cleavage; RNA array. The method, boiled down: (§1)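 Barcoded ribozyme variants were transcribed in situ on sequenced MiSeq chips by E. coli RNA polymerase. At 37 °C, a hybridised Cy3 probe tracked them while glucosamine-6-phosphate (40 μM to 10 mM) in HEPES/KCl/Mg(OAc)2 buffer flowed in and tiles were imaged over ~14 h. Per-tile medians of signals normalised to baseline and to non-cleaving reference variants were fit to one- or two-exponential decays, giving kobs. kcat and KM came from weighted Michaelis–Menten fits across concentrations.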

In data set [2] the parent is B1. Kind of data set: KM; higher = weaker cofactor use; RNA array. In short, it runs like this:
as §1

Data set [3] covers variants of B1. Description: self-cleavage kobs at 640 uM GlcN6P; higher = faster cleavage; RNA array. In short, it runs like this: as §1
Variants of B1 are the subject of data set [4]. Description: self-cleavage kobs at 2500 uM GlcN6P; higher = faster cleavage; RNA array. In short, it runs like this: as §1
In data set [5] the parent is B1. Kind of data set: self-cleavage kobs at 10000 uM GlcN6P; higher = faster cleavage; RNA array. In short, it runs like this:
as §1

Data set [6] covers variants of B1. Kind of data set: self-cleavage kobs at 160 uM GlcN6P; higher = faster cleavage; RNA array. The method, boiled down: as §1
In data set [7] the parent is B1. Description: self-cleavage kobs at 40 uM GlcN6P; higher = faster cleavage; RNA array. The method, boiled down: as §1

± gives the standard error. For some assays here: Fewer inactive variants are shown than the library holds.

G37A G66U: the kcat in data set [1] came out at 0.000462 ± 0.00011 s⁻¹. In data set [2], the KM was 3940 ± 1500 µM. Further, the “self-cleavage kobs at 640 uM GlcN6P” value in data set [3] is 5.56e-05 ± 1.3e-05 s⁻¹. Also, the “self-cleavage kobs at 2500 uM GlcN6P” value in data set [4] came to 0.000217 ± 3.4e-05 s⁻¹. In addition, in data set [5], the “self-cleavage kobs at 10000 uM GlcN6P” value worked out at 0.000301 ± 6.5e-05 s⁻¹.
C50U U54A C70U: the kcat in data set [1] was found to be 3.48e-05 ± 1e-05 s⁻¹. In addition, the “self-cleavage kobs at 640 uM GlcN6P” value in data set [3] was determined as 6e-05 ± 2.4e-05 s⁻¹. Moreover, the “self-cleavage kobs at 2500 uM GlcN6P” value in data set [4] was found to be 2.99e-05 ± 1.5e-05 s⁻¹.
Consider A15G U65C, for which, in data set [1], the kcat amounted to 0.000964 ± 0.00027 s⁻¹. Besides, the “self-cleavage kobs at 160 uM GlcN6P” value in data set [6] came out at 7.34e-05 ± 2.9e-05 s⁻¹. Besides, the “self-cleavage kobs at 640 uM GlcN6P” value in data set [3] came to 0.00026 ± 5e-05 s⁻¹. In addition, in data set [4], the “self-cleavage kobs at 2500 uM GlcN6P” value was determined as 0.000852 ± 0.00013 s⁻¹. Further, in data set [5], the “self-cleavage kobs at 10000 uM GlcN6P” value was found to be 0.000673 ± 0.00014 s⁻¹.
Turning to A14C U31C, the kcat in data set [1] was 0.00408 ± 0.0011 s⁻¹. The KM in data set [2] came out at 2330 ± 860 µM. Moreover, the “self-cleavage kobs at 40 uM GlcN6P” value in data set [7] was determined as 8.42e-05 ± 1.1e-05 s⁻¹. The “self-cleavage kobs at 160 uM GlcN6P” value in data set [6] came to 0.000307 ± 4.3e-05 s⁻¹. Besides, in data set [3], the “self-cleavage kobs at 640 uM GlcN6P” value was determined as 0.000748 ± 9e-05 s⁻¹. For the same variant, the “self-cleavage kobs at 2500 uM GlcN6P” value in data set [4] turned out to be 0.00178 ± 0.00024 s⁻¹. For the same variant, the “self-cleavage kobs at 10000 uM GlcN6P” value in data set [5] amounted to 0.00399 ± 0.00045 s⁻¹.
Consider U49G A53U, for which the catalytic constant (kcat) in data set [1] is 0.00103 ± 0.00011 s⁻¹. The KM in data set [2] stood at 4490 ± 760 µM. Also, the “self-cleavage kobs at 160 uM GlcN6P” value in data set [6] is 2.84e-05 ± 8.8e-06 s⁻¹. Moreover, in data set [3], the “self-cleavage kobs at 640 uM GlcN6P” value turned out to be 0.00014 ± 1.9e-05 s⁻¹. In data set [4], the “self-cleavage kobs at 2500 uM GlcN6P” value is 0.000364 ± 5.6e-05 s⁻¹. In addition, in data set [5], the “self-cleavage kobs at 10000 uM GlcN6P” value stood at 0.000709 ± 8.3e-05 s⁻¹.
Turning to A14C C16G, the turnover number (kcat) in data set [1] was determined as 8.6e-05 ± 5.5e-06 s⁻¹. In data set [2], the KM is 438 ± 180 µM. Besides, the “self-cleavage kobs at 640 uM GlcN6P” value in data set [3] was 4.86e-05 ± 1.2e-05 s⁻¹. Besides, the “self-cleavage kobs at 2500 uM GlcN6P” value in data set [4] came to 8.11e-05 ± 8.9e-06 s⁻¹. In data set [5], the “self-cleavage kobs at 10000 uM GlcN6P” value stood at 7.9e-05 ± 6.9e-06 s⁻¹.
For the variant A12C U46G, the catalytic constant (kcat) in data set [1] is 0.00332 ± 0.00078 s⁻¹. The KM in data set [2] was found to be 1950 ± 600 µM. In addition, the “self-cleavage kobs at 40 uM GlcN6P” value in data set [7] is 8.74e-05 ± 1.3e-05 s⁻¹. Besides, the “self-cleavage kobs at 160 uM GlcN6P” value in data set [6] came out at 0.000221 ± 3.6e-05 s⁻¹. For the same variant, the “self-cleavage kobs at 640 uM GlcN6P” value in data set [3] came to 0.000761 ± 0.00012 s⁻¹. Further, the “self-cleavage kobs at 2500 uM GlcN6P” value in data set [4] is 0.002 ± 0.00032 s⁻¹. Moreover, in data set [5], the “self-cleavage kobs at 10000 uM GlcN6P” value was 0.00278 ± 0.00064 s⁻¹.
Regarding A12G G51C, the kcat in data set [1] was below 1e-05 s⁻¹. The “self-cleavage kobs at 40 uM GlcN6P” value in data set [7] is below 1e-05 s⁻¹. In data set [6], the “self-cleavage kobs at 160 uM GlcN6P” value is below 1e-05 s⁻¹. The “self-cleavage kobs at 2500 uM GlcN6P” value in data set [4] is below 1e-05 s⁻¹. Further, the “self-cleavage kobs at 10000 uM GlcN6P” value in data set [5] was below 1e-05 s⁻¹.
U31G A53U: in data set [1], the turnover number (kcat) was found to be 0.019 ± 0.0084 s⁻¹. The “self-cleavage kobs at 40 uM GlcN6P” value in data set [7] stood at 0.000188 ± 3e-05 s⁻¹. Besides, the “self-cleavage kobs at 640 uM GlcN6P” value in data set [3] worked out at 0.00281 ± 0.00087 s⁻¹. Further, the “self-cleavage kobs at 2500 uM GlcN6P” value in data set [4] was 0.00587 ± 0.002 s⁻¹. In addition, the “self-cleavage kobs at 10000 uM GlcN6P” value in data set [5] was found to be 0.0128 ± 0.0024 s⁻¹.
A53C U54C: the catalytic constant (kcat) in data set [1] came to 0.00131 ± 0.00043 s⁻¹. Also, the KM in data set [2] turned out to be 1870 ± 890 µM. In addition, in data set [7], the “self-cleavage kobs at 40 uM GlcN6P” value was found to be 2.24e-05 ± 9.7e-06 s⁻¹. Also, the “self-cleavage kobs at 160 uM GlcN6P” value in data set [6] worked out at 9.33e-05 ± 1.9e-05 s⁻¹. Further, the “self-cleavage kobs at 640 uM GlcN6P” value in data set [3] amounted to 0.000355 ± 6.3e-05 s⁻¹. Moreover, in data set [4], the “self-cleavage kobs at 2500 uM GlcN6P” value is 0.0011 ± 0.00018 s⁻¹. In addition, the “self-cleavage kobs at 10000 uM GlcN6P” value in data set [5] was found to be 0.000805 ± 0.00023 s⁻¹.
G32A C34U: the kcat in data set [1] was below 1e-05 s⁻¹. Moreover, the “self-cleavage kobs at 640 uM GlcN6P” value in data set [3] was below 1e-05 s⁻¹.
On to G41A U55G, for which the kcat in data set [1] was determined as 0.000144 ± 2.3e-05 s⁻¹. For the same variant, the “self-cleavage kobs at 160 uM GlcN6P” value in data set [6] stood at 5.67e-05 ± 1.5e-05 s⁻¹. Also, the “self-cleavage kobs at 640 uM GlcN6P” value in data set [3] was determined as 0.000142 ± 3.9e-05 s⁻¹. In data set [4], the “self-cleavage kobs at 2500 uM GlcN6P” value turned out to be 0.000107 ± 1.9e-05 s⁻¹. Moreover, the “self-cleavage kobs at 10000 uM GlcN6P” value in data set [5] amounted to 0.000179 ± 2.9e-05 s⁻¹.
Turning to A48G C68G, the kcat in data set [1] came to 5.98e-05 ± 7.3e-06 s⁻¹. Besides, the “self-cleavage kobs at 40 uM GlcN6P” value in data set [7] is 4.65e-05 ± 1.2e-05 s⁻¹. Moreover, the “self-cleavage kobs at 640 uM GlcN6P” value in data set [3] is 7.32e-05 ± 1.6e-05 s⁻¹. For the same variant, the “self-cleavage kobs at 2500 uM GlcN6P” value in data set [4] was found to be 5.41e-05 ± 1.2e-05 s⁻¹. Besides, the “self-cleavage kobs at 10000 uM GlcN6P” value in data set [5] was 5.84e-05 ± 8.1e-06 s⁻¹.
For A14C A52U, the catalytic constant (kcat) in data set [1] was found to be 8.73e-05 ± 5e-06 s⁻¹. In addition, in data set [2], the Michaelis-Menten constant (KM) was 1920 ± 430 µM. Moreover, the “self-cleavage kobs at 2500 uM GlcN6P” value in data set [4] was 5.13e-05 ± 1.4e-05 s⁻¹. In addition, the “self-cleavage kobs at 10000 uM GlcN6P” value in data set [5] stood at 7.28e-05 ± 1e-05 s⁻¹.

Broadly, the kcat is the maximal rate divided by the concentration of active sites. In general, KM refers to the substrate concentration at which the rate is half of its maximum.
